Data as given in publication PMC6303327, “A structural and dynamic model for the assembly of Replication Protein A on single-stranded DNA”.

Legend:
[1] = target: DBD-A (Rfa1) (Saccharomyces cerevisiae, UniProt P22336 178-294); assay: MST; EC50; EMSA: 20 mM Tris pH 7.5, 150 mM NaCl, 10 mM MgCl2, 0.01% Tween-20, room temperature, 30 min; MST: MST-binding buffer (composition not in material), room temperature, 20 min; FRET: reaction buffer not given, 10 nM DNA; details: protein: recombinant; tags: GST removed by 3C cleavage; label: Cy5 (5')
Chain of DBD-A (Rfa1) (P22336 178-294): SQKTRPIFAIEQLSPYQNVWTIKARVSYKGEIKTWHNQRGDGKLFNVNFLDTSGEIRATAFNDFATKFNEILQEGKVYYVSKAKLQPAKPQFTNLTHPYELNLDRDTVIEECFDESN

[2] = target: DBD-A S178D (Saccharomyces cerevisiae, UniProt P22336 178-294, S178D); assay: MST; S178D did not affect dT7 binding; EMSA: 20 mM Tris pH 7.5, 150 mM NaCl, 10 mM MgCl2, 0.01% Tween-20, room temperature, 30 min; MST: MST-binding buffer (composition not in material), room temperature, 20 min; FRET: reaction buffer not given, 10 nM DNA; details: protein: recombinant; tags: GST removed by 3C cleavage; label: Cy5 (5')
Chain of DBD-A S178D (P22336 178-294 S178D): as the sequence (P22336 178-294) above, with S1D counted along it

[3] = target: T1, ScRPA (Rfa1-Rfa2-Rfa3 heterotrimer, wild type) (Saccharomyces cerevisiae, UniProt P22336;P26754;P26755 1-621;1-273;1-122); assay: MST; apparent EC50; Hill slope 0.9 ± 0.1; EMSA: 20 mM Tris pH 7.5, 150 mM NaCl, 10 mM MgCl2, 0.01% Tween-20, room temperature, 30 min; MST: MST-binding buffer (composition not in material), room temperature, 20 min; FRET: reaction buffer not given, 10 nM DNA; details: protein: recombinant; tags: TEV-cleavable His6 on Rfa1; copies: 1;1;1; label: 5' Cy5
T1 sequence (P22336 whole entry, chain 1 of 3): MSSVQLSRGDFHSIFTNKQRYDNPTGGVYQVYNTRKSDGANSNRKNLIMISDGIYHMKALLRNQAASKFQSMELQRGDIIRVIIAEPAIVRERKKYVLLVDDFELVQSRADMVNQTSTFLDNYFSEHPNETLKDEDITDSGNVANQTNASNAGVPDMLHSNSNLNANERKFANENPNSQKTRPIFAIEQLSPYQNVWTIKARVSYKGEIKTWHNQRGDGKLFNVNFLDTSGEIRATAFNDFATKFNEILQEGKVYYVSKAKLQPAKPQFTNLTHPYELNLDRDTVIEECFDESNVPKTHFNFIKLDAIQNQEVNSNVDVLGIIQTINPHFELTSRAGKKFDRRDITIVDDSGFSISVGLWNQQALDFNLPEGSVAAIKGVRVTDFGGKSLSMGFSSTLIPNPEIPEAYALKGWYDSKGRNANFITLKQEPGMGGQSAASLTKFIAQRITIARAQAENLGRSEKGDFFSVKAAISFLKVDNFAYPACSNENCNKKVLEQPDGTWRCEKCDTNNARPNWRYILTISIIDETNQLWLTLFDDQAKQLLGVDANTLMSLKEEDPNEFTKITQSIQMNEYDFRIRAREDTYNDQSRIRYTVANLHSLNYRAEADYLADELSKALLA
T1 sequence (P26754 whole entry, chain 2 of 3): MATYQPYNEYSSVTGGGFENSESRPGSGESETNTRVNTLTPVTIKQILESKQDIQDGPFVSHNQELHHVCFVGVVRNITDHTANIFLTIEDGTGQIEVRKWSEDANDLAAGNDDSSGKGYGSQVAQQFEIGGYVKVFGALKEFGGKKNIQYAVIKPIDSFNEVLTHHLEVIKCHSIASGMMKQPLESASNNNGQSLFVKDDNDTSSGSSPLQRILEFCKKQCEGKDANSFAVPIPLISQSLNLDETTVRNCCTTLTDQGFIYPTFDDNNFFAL
T1 sequence (P26755 whole entry, chain 3 of 3): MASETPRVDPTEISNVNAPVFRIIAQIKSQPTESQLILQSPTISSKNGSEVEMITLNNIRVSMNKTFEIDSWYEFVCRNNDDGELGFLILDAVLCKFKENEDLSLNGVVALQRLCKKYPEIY

[4] = target: T1, ScRPA (Rfa1-Rfa2-Rfa3 heterotrimer, …); assay: FRET titration; stoichiometric, X0 = 8.7 ± 0.3 nM at 10 nM DNA (1:1); EMSA: 20 mM Tris pH 7.5, 150 mM NaCl, 10 mM MgCl2, 0.01% Tween-20, room temperature, 30 min; MST: MST-binding buffer (composition not in material), room temperature, 20 min; FRET: reaction buffer not given, 10 nM DNA; details: protein: recombinant; tags: TEV-cleavable His6 on Rfa1; copies: 1;1;1; label: 5' Cy5, 3' Cy3
[5] = target: T1, ScRPA (Rfa1-Rfa2-Rfa3 heterotrimer, …); assay: FRET titration; 10 nM DNA; Hill fit; panel in Supplementary Fig. 14 gives 38.7 ± 0.8; EMSA: 20 mM Tris pH 7.5, 150 mM NaCl, 10 mM MgCl2, 0.01% Tween-20, room temperature, 30 min; MST: MST-binding buffer (composition not in material), room temperature, 20 min; FRET: reaction buffer not given, 10 nM DNA; details: protein: recombinant; tags: TEV-cleavable His6 on Rfa1; copies: 1;1;1; label: 5' Cy5, Cy3 after nt 29

B1: dT7 (Cy5) (ssDNA)
DNA: TTTTTTT
apparent K (half saturation) [1]: 309 ± 18 nM | binding result [2]: binds

B2: dT100 (Cy5) (ssDNA)
DNA: TTTTTTTTTTTTTTTTTTTTTTTTTTTTTTTTTTTTTTTTTTTTTTTTTTTTTTTTTTTTTTTTTTTTTTTTTTTTTTTTTTTTTTTTTTTTTTTTTTTT
apparent K (half saturation) [3]: ~20 nM

B3: dT30 (FRET) (ssDNA)
DNA: TTTTTTTTTTTTTTTTTTTTTTTTTTTTTT
binding result [4]: binds

B4: dT90(1-30) (ssDNA)
DNA: TTTTTTTTTTTTTTTTTTTTTTTTTTTTTTTTTTTTTTTTTTTTTTTTTTTTTTTTTTTTTTTTTTTTTTTTTTTTTTTTTTTTTTTTTT
modifications: internal Cy3 in backbone
Kd [5]: 39.3 ± 0.9 nM
